Residue numbers refer to the chain shown, from its start. Numbers in names are those of the source.
What was measured:
[1] = target: T1, CD3 on T cells / Jurkat cells (human, UniProt P07766 23-207; P04234 22-171; P09693 23-182); assay: FACS on Jurkat cells expressing CD3
T1 construct: whole, on cells; Native CD3 complex on CD3+ T cells isolated from normal donors or on Jurkat cells; also called human CD3; CD3+ T cells

CD20 on DoHH2 cells = target: T2, CD20 on DoHH2 cells (human, UniProt P11836 1-297); assay: FACS on DoHH2 cells expressing CD20 (FIG. 45E)
T2 construct: whole, on cells; Endogenous CD20 on the human DoHH2 cell line; also called DoHH2 cells expressing CD20
T2 sequence (looked up): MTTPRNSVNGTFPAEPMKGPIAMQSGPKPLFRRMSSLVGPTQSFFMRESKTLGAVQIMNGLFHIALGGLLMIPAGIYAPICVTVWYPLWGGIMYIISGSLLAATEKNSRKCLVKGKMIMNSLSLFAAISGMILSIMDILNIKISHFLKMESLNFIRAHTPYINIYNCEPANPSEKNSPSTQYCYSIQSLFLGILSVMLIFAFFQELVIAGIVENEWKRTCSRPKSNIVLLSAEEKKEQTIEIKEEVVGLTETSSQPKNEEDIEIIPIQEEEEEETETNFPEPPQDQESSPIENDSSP

GPRC5D on MM.1S cells [2] = target: T3, GPRC5D on MM.1S cells (human, UniProt Q9NZD1 1-345); assay: cell-based or functional assay
GPRC5D on MM.1S cells [3] = target: T3, GPRC5D on MM.1S cells; assay: FACS on MM.1S cells
GPRC5D on MM.1S cells [4] = target: T3, GPRC5D on MM.1S cells; assay: cell-based or functional assay; remark: listed apart in the source
GPRC5D on MM.1S cells [5] = target: T3, GPRC5D on MM.1S cells; assay: cell-based or functional assay; remark: listed apart in the source
CD3 on Jurkat cells [6] = target: T4, CD3 on Jurkat cells (UniProt P07766 23-207; P04234 22-171; P09693 23-182); assay: FACS on Jurkat cells
T4 construct: whole, on cells; On the cell, CD3 stands in the TCR-CD3 complex; also called cluster of differentiation 3

GPRC5D on MM.1S cells [7] = target: T3, GPRC5D on MM.1S cells; assay: FACS on MM.1S cells; remark: listed apart in the source
In short: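 Binding to MM.1S cells measured by flow cytometry; cells incubated with antibody dilutions for 1 h at 4 degrees in PBS + 1% BSA, washed, then stained with secondary antibody for 0.5 h at 4 degrees before fluorescence read-out.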

GPRC5D on MM.1S cells [8] = target: T3, GPRC5D on MM.1S cells; assay: cell-based or functional assay; remark: listed apart in the source
CD3 on Jurkat cells [9] = target: T4, CD3 on Jurkat cells; assay: FACS on Jurkat cells; remark: listed apart in the source
Experimental: The binding affinities of the generated humanized Fab-scFv-Fab bispecific antibodies were determined by FACS analysis. […] (a) Jurkat cells were washed by Staining Buffer (PBS+1% BSA) in round bottom 96-well plate. [0833] (b) Antibody dilutions and cells were added to each well, incubated at 4 degrees for 1 hour. [0834] (c) Cells were spined down at 300 g for 3 minutes, and the supernatants were discarded. [0835] (d) Cells were washed with Staining Buffer. […] (e) Step (d) was repeated and the cells were incubated for 0.5 hours at 4 degrees with secondary antibody in Staining Buffer. [0837] (f) After incubation, step (d)-(e) were repeated. […] (g) Staining Buffer was added and fluorescence signals were recorded by flow cytometry.
The binding affinities of the generated humanized Fab-scFv-Fab bispecific antibodies were determined by FACS analysis. The ATG-Bis-40E9 described in Example 1 was used as positive control and hIgG1 isotype was used as negative control. The protocol for FACS analysis is described in Example 3.2 above.

T4 sequence (P07766 23-207, chain 1 of 3): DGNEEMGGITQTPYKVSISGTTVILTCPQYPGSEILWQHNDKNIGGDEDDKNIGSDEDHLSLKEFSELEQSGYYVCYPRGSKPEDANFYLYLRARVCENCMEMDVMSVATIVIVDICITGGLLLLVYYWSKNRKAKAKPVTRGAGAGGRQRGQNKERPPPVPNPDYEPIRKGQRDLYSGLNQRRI
T4 sequence (P04234 22-171, chain 2 of 3): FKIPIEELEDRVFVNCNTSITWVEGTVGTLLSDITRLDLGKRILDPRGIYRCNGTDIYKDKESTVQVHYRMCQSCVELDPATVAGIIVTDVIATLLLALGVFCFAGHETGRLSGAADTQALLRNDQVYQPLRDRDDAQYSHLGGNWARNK
T4 sequence (P09693 23-182, chain 3 of 3): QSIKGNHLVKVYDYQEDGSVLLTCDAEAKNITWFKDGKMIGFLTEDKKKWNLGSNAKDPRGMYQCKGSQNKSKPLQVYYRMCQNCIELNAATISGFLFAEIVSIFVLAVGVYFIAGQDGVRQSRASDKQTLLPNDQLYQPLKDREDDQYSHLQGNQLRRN
T1 sequence (P07766 23-207, chain 1 of 3): as the sequence (P07766 23-207, chain 1 of 3) above
T1 sequence (P04234 22-171, chain 2 of 3): as the sequence (P04234 22-171, chain 2 of 3) above
T1 sequence (P09693 23-182, chain 3 of 3): as the sequence (P09693 23-182, chain 3 of 3) above
T3 sequence (Q9NZD1 whole entry): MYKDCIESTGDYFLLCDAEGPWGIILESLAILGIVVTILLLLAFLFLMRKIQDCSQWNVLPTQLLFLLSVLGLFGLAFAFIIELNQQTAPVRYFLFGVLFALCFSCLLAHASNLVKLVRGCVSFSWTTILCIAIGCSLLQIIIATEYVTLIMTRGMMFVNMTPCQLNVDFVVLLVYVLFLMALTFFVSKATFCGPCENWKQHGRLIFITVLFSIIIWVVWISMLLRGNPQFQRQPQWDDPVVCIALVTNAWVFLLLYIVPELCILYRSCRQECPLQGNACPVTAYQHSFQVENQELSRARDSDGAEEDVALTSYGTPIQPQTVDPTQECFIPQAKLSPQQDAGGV

B1: ATG201-Y101F-20R (bispecific antibody, human IgG1, kappa, L234A L235A)
heavy 1: not shown
heavy 2: QVQLQQPGAELVKPGASVKMSCKASGYTFTSYNMHWVKQTPGRGLEWIGAIYPGNGDTSYNQKFKGKATLTADKSSSTAYMQLSSLTSEDSAVYYCARSTYYGGDWYFNVWGAGTTVTVSAASTKGPSVFPLAPSSKSTSGGTAALGCLVKDYFPEPVTVSWNSGALTSGVHTFPAVLQSSGLYSLSSVVTVPSSSLGTQTYICNVNHKPSNTKVDKKVEPKSCGGGGSGGGGSEVQLVQSGAEVKKPGSSVKVSCKASGYTFSSYVIHWVRQAPGQCLEWMGYINPYNDVIKYNEKFKGRVTLTSDKSTSTAYMELSSLRSEDTAVYYCARDSFYSYDGFAYWGQGTLVTVSSGGGGSGGGGSGGGGSGGGGSEIVLTQSPDFQSVTPKEKVTITCSASSSVSYMHWYQQKPDQSPKRLIYDTSKLASGVPSRFSGSGSGTDFTLTINSLEAEDAATYYCQQWSSNPPTFGCGTKVEIKGGGGSGGGGSDKTHTCPPCPAPEAAGGPSVFLFPPKPKDTLMISRTPEVTCVVVDVSHEDPEVKFNWYVDGVEVHNAKTKPREEQYNSTYRVVSVLTVLHQDWLNGKEYKCKVSNKALPAPIEKTISKAKGQPREPQVCTLPPSREEMTKNQVSLSCAVKGFYPSDIAVEWESNGQPENNYKTTPPVLDSDGSFFLVSKLTVDKSRWQQGNVFSCSVMHEALHNHYTQKSLSLSPGK
light: QIVLSQSPAILSASPGEKVTMTCRASSSVSYIHWFQQKPGSSPKPWIYATSNLASGVPVRFSGSGSGTSYSLTISRVEAEDAATYYCQQWTSNPPTFGGGTKLEIKRTVAAPSVFIFPPSDEQLKSGTASVVCLLNNFYPREAKVQWKVDNALQSGNSQESVTEQDSKDSTYSLSSTLTLSKADYEKHKVYACEVTHQGLSSPVTKSFNRGEC
notes: CD20xCD3 Fab-scFv-Fab: two C20R Fabs, anti-CD3 scFv 40E9-L2H3-Y101F.H; L234A/L235A
binding result [1]: binds | EC50 (CD20 on DoHH2 cells): 4.05 nM

B2: ATG201-N55S-20R (bispecific antibody, human IgG1, kappa, L234A L235A)
heavy 1: not shown
heavy 2: B1 heavy 2 with N289S, F335Y
light: B1 light
notes: CD20xCD3 Fab-scFv-Fab: two C20R Fabs, anti-CD3 scFv 40E9-L2H3-N55S.H; L234A/L235A
binding result [1]: binds | EC50 (CD20 on DoHH2 cells): 3.13 nM

B3: ATG201-Y101F-200 (bispecific antibody, human IgG1, kappa, L234A L235A)
heavy 1: not shown
heavy 2: EVQLVESGGGLVQPGRSLRLSCAASGFTFNDYAMHWVRQAPGKGLEWVSTISWNSGSIGYADSVKGRFTISRDNAKKSLYLQMNSLRAEDTALYYCAKDIQYGNYYYGMDVWGQGTTVTVSSASTKGPSVFPLAPSSKSTSGGTAALGCLVKDYFPEPVTVSWNSGALTSGVHTFPAVLQSSGLYSLSSVVTVPSSSLGTQTYICNVNHKPSNTKVDKKVEPKSCGGGGSGGGGSEVQLVQSGAEVKKPGSSVKVSCKASGYTFSSYVIHWVRQAPGQCLEWMGYINPYNDVIKYNEKFKGRVTLTSDKSTSTAYMELSSLRSEDTAVYYCARDSFYSYDGFAYWGQGTLVTVSSGGGGSGGGGSGGGGSGGGGSEIVLTQSPDFQSVTPKEKVTITCSASSSVSYMHWYQQKPDQSPKRLIYDTSKLASGVPSRFSGSGSGTDFTLTINSLEAEDAATYYCQQWSSNPPTFGCGTKVEIKGGGGSGGGGSDKTHTCPPCPAPEAAGGPSVFLFPPKPKDTLMISRTPEVTCVVVDVSHEDPEVKFNWYVDGVEVHNAKTKPREEQYNSTYRVVSVLTVLHQDWLNGKEYKCKVSNKALPAPIEKTISKAKGQPREPQVCTLPPSREEMTKNQVSLSCAVKGFYPSDIAVEWESNGQPENNYKTTPPVLDSDGSFFLVSKLTVDKSRWQQGNVFSCSVMHEALHNHYTQKSLSLSPGK
light: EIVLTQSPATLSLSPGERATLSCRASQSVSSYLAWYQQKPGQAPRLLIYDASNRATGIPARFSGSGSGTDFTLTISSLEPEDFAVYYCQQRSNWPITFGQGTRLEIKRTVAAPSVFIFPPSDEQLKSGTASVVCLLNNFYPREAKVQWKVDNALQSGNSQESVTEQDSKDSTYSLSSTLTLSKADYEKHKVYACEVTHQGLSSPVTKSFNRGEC
notes: L234A/L235A; also called ATG201-Y101F-20O
binding result [1]: binds | EC50 (CD20 on DoHH2 cells): 7.55 nM

B4: ATG201-N55S-200 (bispecific antibody, human IgG1, kappa, L234A L235A)
heavy 1: not shown
heavy 2: B3 heavy 2 with N290S, F336Y
light: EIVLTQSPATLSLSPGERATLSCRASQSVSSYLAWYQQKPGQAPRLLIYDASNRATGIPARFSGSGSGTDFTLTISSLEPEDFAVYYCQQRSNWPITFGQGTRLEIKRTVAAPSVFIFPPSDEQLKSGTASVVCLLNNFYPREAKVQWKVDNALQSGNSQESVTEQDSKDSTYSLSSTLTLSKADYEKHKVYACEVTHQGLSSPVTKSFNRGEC
notes: L234A/L235A; also called ATG201-N55S-20O
binding result [1]: binds | EC50 (CD20 on DoHH2 cells): 4.89 nM

B5: ATG-Bis-40E9 (bispecific antibody)
heavy: EVQLQQSGPELVKPGASVKMSCKASGYTFTSYVIHWVKQKTGQGLEWIGYFNPYNDGTKYNEEFKGKATLTSDKSSNTAYMELNSLTSDDSAVYFCARGGVRRYFDVWGAGTTVTVSS
heavy (part 1 of 2): B5 heavy
heavy (part 2 of 2): GGGGSGGGGSEVQLQLSGPELVKPGASVKMSCKASGYTFSSYVIHWVKQKPGQGLEWIGYINPYNDVIKYNEKFKGKATLTSDKSSSTAYMELSSLTSEDSAVYYCARDSYYSYDGFAYWGQGTLVTVSAGGGGSGGGGSGGGGSGGGGSQIVLTQSPAIMSASPGEKVTMTCSASSSVSYMHWYQQKSGTSPKRWIYDTSKLASGVPARFSGSGSGTSYSLTISSMEAEDAATYYCQQWSSNPPTFGGGTKVEIKGGGGSGGGGS
light: DIQMTQSPSSLSASLGERVSLTCRASQDIGSNLNWLQQEPDGTIKRLIYATFGLDSGVPKRFSGSRSGSDYSLTISSLESEDFVDYYCQQYASFPYTFGGGTKLEIK
notes: Fab-scFv-Fab format: two anti-GPRC5D Fab domains and one anti-CD3 scFv; LALA mutations; also called chimeric 2+1 bispecific antibody; parental antibody control; not shown: CH1; CL; CH1-hinge-CH2-CH3 with L234A, L235A; CH2-CH3 with L234A, L235A
Ratio of IC50 (relative to ATG-Bis-40E9), MM.1S cytotoxicity (GPRC5D on MM.1S cells [2]): 1 ratio | Ratio of Top cytotoxicity (relative to ATG-Bis-40E9), MM.1S cytotoxicity (GPRC5D on MM.1S cells [2]): 1 ratio | EC50 (GPRC5D on MM.1S cells [3]): 2.43 nM | Top signal (GPRC5D on MM.1S cells [3]): 1880 MFI | EC50, Jurkat-NFAT-Luciferase assay in the presence of MM.1S cells (GPRC5D on MM.1S cells [4]): 0.011 nM | Top RLU, Jurkat-NFAT-Luciferase assay in the presence of MM.1S cells (GPRC5D on MM.1S cells [4]): 564 RLU | Ratio of EC50 (relative to ATG-Bis-40E9), luciferase assay on MM.1S (GPRC5D on MM.1S cells [5]): 1 ratio | Ratio of Top RLU (relative to ATG-Bis-40E9), luciferase assay on MM.1S (GPRC5D on MM.1S cells [5]): 1 ratio | Ratio of EC50 (relative to ATG-Bis-40E9) (CD3 on Jurkat cells [6]): 1 ratio | Ratio of Top MFI (relative to ATG-Bis-40E9) (CD3 on Jurkat cells [6]): 1 ratio | Ratio of EC50 (relative to ATG-Bis-40E9) (GPRC5D on MM.1S cells [7]): 1 ratio | Ratio of Top MFI (relative to ATG-Bis-40E9) (GPRC5D on MM.1S cells [7]): 1 ratio | IC50 of T-cell dependent cytotoxicity on MM.1S cells (GPRC5D on MM.1S cells [8]): 0.00063 nM | Top (%) target cell killing, MM.1S cells (GPRC5D on MM.1S cells [8]): 99.2% | EC50 (CD3 on Jurkat cells [9]): 74.7 nM

Source: patent publication US20260193348A1 (ANTENGENE BIOLOGICS, published 2026)
